{"source": "the supplement of paper PMC9112550", "about": "“Optimization of the antimicrobial peptide Bac7 by deep mutational scanning” (BMC Biology, 2022);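 further: peptides expressed intracellularly from a pBAD plasmid library in pooled LB shake-flask culture, induced with 0.3% L-arabinose, DNA abundance read by NGS, three biological replicates, DESeq2 with apeglm shrinkage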"}
{"tested_on": "Escherichia coli TOP10", "test": "shrunken log2 fold change of peptide-encoding DNA abundance (4.5 h post-induction vs induction); higher = less antimicrobial activity (less host growth inhibition)", "conditions": "time post-induction: 4.5 h; library: site-saturation at positions 5, 18, 19, 20"}
{"sequence": "RRIRARPPRLPRPRPRPTRNPRP", "shrunken log2 fold change": 0.657}
{"sequence": "RRIRKRPPRLPRPRPRPGQCPRP", "shrunken log2 fold change": 0.0394}
{"sequence": "RRIRKRPPRLPRPRPRPLPLPRP", "shrunken log2 fold change": 0.387}
{"sequence": "RRIRWRPPRLPRPRPRPAREPRP", "shrunken log2 fold change": 0.138}
{"sequence": "RRIRQRPPRLPRPRPRPNNCPRP", "shrunken log2 fold change": -0.138}
{"sequence": "RRIRQRPPRLPRPRPRPQMRPRP", "shrunken log2 fold change": -0.0736}
{"sequence": "RRIRGRPPRLPRPRPRPYHHPRP", "shrunken log2 fold change": -0.176}
{"sequence": "RRIRFRPPRLPRPRPRPRCLPRP", "shrunken log2 fold change": -0.124}
{"sequence": "RRIRSRPPRLPRPRPRPNVVPRP", "shrunken log2 fold change": -0.0558}
{"sequence": "RRIRARPPRLPRPRPRPQLRPRP", "shrunken log2 fold change": 0.157}
{"sequence": "RRIRFRPPRLPRPRPRPKRGPRP", "shrunken log2 fold change": 0.0365}
{"sequence": "RRIRQRPPRLPRPRPRPAFVPRP", "shrunken log2 fold change": -0.0399}
{"sequence": "RRIRKRPPRLPRPRPRPRENPRP", "shrunken log2 fold change": 0.559}
{"sequence": "RRIRVRPPRLPRPRPRPFVNPRP", "shrunken log2 fold change": -0.0619}
{"sequence": "RRIRMRPPRLPRPRPRPYHQPRP", "shrunken log2 fold change": -0.297}
{"sequence": "RRIRRRPPRLPRPRPRPQTHPRP", "shrunken log2 fold change": 0.361}
{"sequence": "RRIRNRPPRLPRPRPRPANAPRP", "shrunken log2 fold change": 0.259}
{"sequence": "RRIRVRPPRLPRPRPRPSIAPRP", "shrunken log2 fold change": -0.0218}
{"sequence": "RRIRLRPPRLPRPRPRPHWNPRP", "shrunken log2 fold change": -0.315}
{"sequence": "RRIRARPPRLPRPRPRPQIVPRP", "shrunken log2 fold change": -0.0292}
{"sequence": "RRIRNRPPRLPRPRPRPDNIPRP", "shrunken log2 fold change": -0.312}
{"sequence": "RRIRSRPPRLPRPRPRPCVPPRP", "shrunken log2 fold change": -0.0369}
{"sequence": "RRIRPRPPRLPRPRPRPKHMPRP", "shrunken log2 fold change": -0.0288}
{"sequence": "RRIRTRPPRLPRPRPRPHFLPRP", "shrunken log2 fold change": -0.218}
{"sequence": "RRIRSRPPRLPRPRPRPLLMPRP", "shrunken log2 fold change": 0.128}
{"sequence": "RRIRMRPPRLPRPRPRPFHVPRP", "shrunken log2 fold change": -0.726}
{"sequence": "RRIRRRPPRLPRPRPRPICEPRP", "shrunken log2 fold change": 0.356}
{"sequence": "RRIRDRPPRLPRPRPRPATAPRP", "shrunken log2 fold change": 0.722}
{"sequence": "RRIRRRPPRLPRPRPRPTGSPRP", "shrunken log2 fold change": 0.302}
{"sequence": "RRIRRRPPRLPRPRPRPYYHPRP", "shrunken log2 fold change": -0.645}
{"sequence": "RRIRARPPRLPRPRPRPEIDPRP", "shrunken log2 fold change": 1.36}
{"sequence": "RRIRIRPPRLPRPRPRPNGSPRP", "shrunken log2 fold change": 0.0061}
{"sequence": "RRIRVRPPRLPRPRPRPFYLPRP", "shrunken log2 fold change": -0.449}
{"sequence": "RRIRKRPPRLPRPRPRPMVVPRP", "shrunken log2 fold change": -0.0348}
{"sequence": "RRIRKRPPRLPRPRPRPMNIPRP", "shrunken log2 fold change": -0.213}
{"sequence": "RRIRQRPPRLPRPRPRPDKAPRP", "shrunken log2 fold change": 0.517}
{"sequence": "RRIRSRPPRLPRPRPRPCYHPRP", "shrunken log2 fold change": -0.297}
{"sequence": "RRIRCRPPRLPRPRPRPCCHPRP", "shrunken log2 fold change": -0.204}
{"sequence": "RRIRYRPPRLPRPRPRPWTQPRP", "shrunken log2 fold change": -0.343}
{"sequence": "RRIRMRPPRLPRPRPRPHKIPRP", "shrunken log2 fold change": -0.188}
{"sequence": "RRIRQRPPRLPRPRPRPPAWPRP", "shrunken log2 fold change": 0.0654}
{"sequence": "RRIRFRPPRLPRPRPRPMWDPRP", "shrunken log2 fold change": -0.469}
{"sequence": "RRIRMRPPRLPRPRPRPWCYPRP", "shrunken log2 fold change": -0.162}
{"sequence": "RRIRTRPPRLPRPRPRPCSSPRP", "shrunken log2 fold change": -0.0634}
{"sequence": "RRIRRRPPRLPRPRPRPYEPPRP", "shrunken log2 fold change": -0.846}
{"sequence": "RRIRFRPPRLPRPRPRPGHYPRP", "shrunken log2 fold change": -0.205}
{"sequence": "RRIRFRPPRLPRPRPRPMRTPRP", "shrunken log2 fold change": 0.547}
{"sequence": "RRIRIRPPRLPRPRPRPERKPRP", "shrunken log2 fold change": 0.00827}
{"sequence": "RRIRYRPPRLPRPRPRPHFKPRP", "shrunken log2 fold change": -0.346}
{"sequence": "RRIRGRPPRLPRPRPRPQRPPRP", "shrunken log2 fold change": 0.406}
{"sequence": "RRIRCRPPRLPRPRPRPPNLPRP", "shrunken log2 fold change": -0.0983}
{"sequence": "RRIRLRPPRLPRPRPRPHHYPRP", "shrunken log2 fold change": -0.628}
{"sequence": "RRIRARPPRLPRPRPRPSFIPRP", "shrunken log2 fold change": -0.177}
{"sequence": "RRIRMRPPRLPRPRPRPRPDPRP", "shrunken log2 fold change": 0.937}
{"sequence": "RRIRNRPPRLPRPRPRPWTTPRP", "shrunken log2 fold change": -0.0122}
{"sequence": "RRIRMRPPRLPRPRPRPMFHPRP", "shrunken log2 fold change": -0.244}
{"sequence": "RRIRERPPRLPRPRPRPAILPRP", "shrunken log2 fold change": -0.629}
{"sequence": "RRIRIRPPRLPRPRPRPRCPPRP", "shrunken log2 fold change": 0.0321}
{"sequence": "RRIRRRPPRLPRPRPRPATEPRP", "shrunken log2 fold change": 0.421}
{"sequence": "RRIRNRPPRLPRPRPRPTQFPRP", "shrunken log2 fold change": 0.138}
{"sequence": "RRIRWRPPRLPRPRPRPPRLPRP", "shrunken log2 fold change": 0.526}
{"sequence": "RRIRYRPPRLPRPRPRPGLEPRP", "shrunken log2 fold change": 0.114}
{"sequence": "RRIRQRPPRLPRPRPRPLSFPRP", "shrunken log2 fold change": -0.415}
{"sequence": "RRIRSRPPRLPRPRPRPHYNPRP", "shrunken log2 fold change": -1.04}
{"sequence": "RRIRARPPRLPRPRPRPDWDPRP", "shrunken log2 fold change": 0.341}
{"sequence": "RRIRYRPPRLPRPRPRPEMIPRP", "shrunken log2 fold change": 0.0135}
{"sequence": "RRIRMRPPRLPRPRPRPWYWPRP", "shrunken log2 fold change": -0.724}
{"sequence": "RRIRTRPPRLPRPRPRPVSMPRP", "shrunken log2 fold change": -0.812}
{"sequence": "RRIRLRPPRLPRPRPRPHCTPRP", "shrunken log2 fold change": -0.533}
{"sequence": "RRIRFRPPRLPRPRPRPKVAPRP", "shrunken log2 fold change": 0.192}
{"sequence": "RRIRTRPPRLPRPRPRPIQSPRP", "shrunken log2 fold change": -0.0351}
{"sequence": "RRIRERPPRLPRPRPRPCVIPRP", "shrunken log2 fold change": -0.0272}
{"sequence": "RRIRLRPPRLPRPRPRPCMFPRP", "shrunken log2 fold change": -0.431}
{"sequence": "RRIRTRPPRLPRPRPRPEWEPRP", "shrunken log2 fold change": 0.0583}
{"sequence": "RRIRMRPPRLPRPRPRPNRTPRP", "shrunken log2 fold change": 0.13}
{"sequence": "RRIRRRPPRLPRPRPRPSGEPRP", "shrunken log2 fold change": 0.387}
{"sequence": "RRIRPRPPRLPRPRPRPAGQPRP", "shrunken log2 fold change": -0.0709}
{"sequence": "RRIRYRPPRLPRPRPRPTIVPRP", "shrunken log2 fold change": -0.0265}
{"sequence": "RRIRKRPPRLPRPRPRPINEPRP", "shrunken log2 fold change": -0.215}
{"sequence": "RRIRNRPPRLPRPRPRPEFAPRP", "shrunken log2 fold change": 0.175}
{"sequence": "RRIRARPPRLPRPRPRPIDDPRP", "shrunken log2 fold change": 0.178}
{"sequence": "RRIRMRPPRLPRPRPRPVMEPRP", "shrunken log2 fold change": -0.00102}
{"sequence": "RRIRCRPPRLPRPRPRPGQAPRP", "shrunken log2 fold change": -0.0147}
{"sequence": "RRIRGRPPRLPRPRPRPCARPRP", "shrunken log2 fold change": 0.38}
{"sequence": "RRIRERPPRLPRPRPRPFAHPRP", "shrunken log2 fold change": 0.117}
{"sequence": "RRIRERPPRLPRPRPRPCLSPRP", "shrunken log2 fold change": 0.0657}
{"sequence": "RRIRGRPPRLPRPRPRPSFYPRP", "shrunken log2 fold change": 0.00205}
{"sequence": "RRIRERPPRLPRPRPRPQFDPRP", "shrunken log2 fold change": -0.111}
{"sequence": "RRIRGRPPRLPRPRPRPSIAPRP", "shrunken log2 fold change": 0.669}
{"sequence": "RRIRTRPPRLPRPRPRPVIYPRP", "shrunken log2 fold change": 0.721}
{"sequence": "RRIRSRPPRLPRPRPRPNMWPRP", "shrunken log2 fold change": -0.311}
{"sequence": "RRIRCRPPRLPRPRPRPVLEPRP", "shrunken log2 fold change": -0.249}
{"sequence": "RRIRVRPPRLPRPRPRPREYPRP", "shrunken log2 fold change": 0.0223}
{"sequence": "RRIRHRPPRLPRPRPRPAHMPRP", "shrunken log2 fold change": -0.0835}
{"sequence": "RRIRERPPRLPRPRPRPNDFPRP", "shrunken log2 fold change": -0.0161}
{"sequence": "RRIRCRPPRLPRPRPRPKGFPRP", "shrunken log2 fold change": 0.00848}
{"sequence": "RRIRQRPPRLPRPRPRPLNDPRP", "shrunken log2 fold change": -0.277}
{"sequence": "RRIRDRPPRLPRPRPRPNLEPRP", "shrunken log2 fold change": 0.27}
{"sequence": "RRIRTRPPRLPRPRPRPMYRPRP", "shrunken log2 fold change": -0.0591}
{"sequence": "RRIRSRPPRLPRPRPRPHDRPRP", "shrunken log2 fold change": -0.138}
{"sequence": "RRIRNRPPRLPRPRPRPTEDPRP", "shrunken log2 fold change": -0.187}
{"sequence": "RRIRVRPPRLPRPRPRPRFIPRP", "shrunken log2 fold change": -0.318}
{"sequence": "RRIRDRPPRLPRPRPRPHFVPRP", "shrunken log2 fold change": -0.193}
{"sequence": "RRIRIRPPRLPRPRPRPISCPRP", "shrunken log2 fold change": -0.0154}
{"sequence": "RRIRWRPPRLPRPRPRPWYEPRP", "shrunken log2 fold change": 0.0012}
{"sequence": "RRIRMRPPRLPRPRPRPIEEPRP", "shrunken log2 fold change": 0.278}
{"sequence": "RRIRDRPPRLPRPRPRPQIIPRP", "shrunken log2 fold change": 0.0399}
{"sequence": "RRIRMRPPRLPRPRPRPPNCPRP", "shrunken log2 fold change": 0.0335}
{"sequence": "RRIRTRPPRLPRPRPRPGQTPRP", "shrunken log2 fold change": -0.0115}
{"sequence": "RRIRFRPPRLPRPRPRPQHHPRP", "shrunken log2 fold change": -0.659}
{"sequence": "RRIRKRPPRLPRPRPRPHPIPRP", "shrunken log2 fold change": 0.0828}
{"sequence": "RRIRGRPPRLPRPRPRPVCQPRP", "shrunken log2 fold change": 0.664}
